Series [1] concerns the molecule itself. Nature of the series: SDS-PAGE of the tetramer; 13.5% SDS-PAGE of the detergent-solubilised protein; 20 mM Hepes pH 7 or 10 mM succinic acid pH 4, 5 mM DDM, 200 mM Cs+, Rb+, K+ or Na+, or TBA+.
Series [2] deals with the molecule itself. Put plainly: FRET or BRET; homo-FRET between the W67 residues of the subunits, read by steady-state and time-resolved fluorescence anisotropy; 6 uM protein (monomer based), 5 mM DDM, pH 7 or pH 4, saturating monovalent cations or TBA+, room temperature. On the technique in general: BRET reads energy transfer from a luciferase to a nearby fluorophore.

Changes are numbered by the printed parent chain. In names and notes the source's numbering stands.

B1: KcsA W26,68,87,113F quadruple mutant channel (W67 KcsA) (natural protein, S. lividans, UniProt P0A334 1-160, looked up)
chain: MPPMLSGLLARLVKLLLGRHGSALHFRAAGAATVLLVIVLLAGSYLAVLAERGAPGAQLITYPRALWFSVETATTVGYGDLYPVTLFGRLVAVVVMVAGITSFGLVTAALATFFVGREQERRGHFVRHSEKAAEEAYTRTTRALHERFDRLERMLDDNRR
notes: KcsA potassium channel cloned from S. lividans; single Trp (W67) left per subunit; called full-length in the discussion; Homotetramer; also called KcsA W67
For orientation: stoichiometry N means the number of molecules, sites or subunits per partner or assembly. With B1, the “stoichiometry N” value in series [1] worked out at 4.

B2: KcsA W26,68,87,113F E71A mutant channel (W67 E71A KcsA) (natural protein, S. lividans, UniProt P0A334 1-160, looked up)
chain: B1 chain with E71A
notes: KcsA potassium channel cloned from S. lividans; also called E71A W67 KcsA; E71A W67
For the protein B2, the binding result in series [2] is reported as “binds”.

Values taken from paper PMC6470172, “Conformational plasticity in the KcsA potassium channel pore helix revealed by homo-FRET studies” (Scientific Reports, 2019).
